Test results reported in patent publication US10512676B2, “Formulations comprising recombinant acid alpha-glucosidase” (Amicus Therapeutics, Inc., priority 2016, dated 2019).

Experiments:
[1] = Safety and tolerability in patients with Pompe disease; assay type: in vivo, human; settings: alone and in combination with miglustat
Experimental: Mean total GAA protein and miglustat PK results from the first 8 Cohort 1 patients through Visit 9 and the first 2 Cohort 3 patients were assessed.

whole human blood = assay: Hemolysis in whole human blood; assay type: cell-based; settings: for percent hemolysis / OD540 With Blood / % Hemolysis: 1 hour at 37° C.; for % Hemolysis: water = 100%
Experimental: A series of dilutions of blood (1:2, 1:3, 1:4, 1:5, and 1:10) from a human donor were prepared in saline. […] Four types of samples were tested: the test article, placebo, positive control and negative control. […] The placebo was the same as the test article except there was no ATB200 rhGAA.
Samples were incubated without agitation for 1 hour at 37° C. After incubation, the tubes were centrifuged for 10 minutes at approximately 100× g at room temperature. The amount of hemoglobin in the supernatant of each sample was analyzed spectrophotometrically at 540 nm.
The percent hemolysis for the test article was determined by the formula: […]
The percent hemolysis of water plus blood is 100%. Saline was the negative control. Hemolysis less than or equal to 10% was considered insignificant. The percent hemolysis was calculated for each concentration of the test article and for the placebo.

CIMPR = CIMPR (Homo sapiens, UniProt P11717); assay: CIMPR plate binding assay
CIMPR, sequence (P11717 41-2491, species assumed): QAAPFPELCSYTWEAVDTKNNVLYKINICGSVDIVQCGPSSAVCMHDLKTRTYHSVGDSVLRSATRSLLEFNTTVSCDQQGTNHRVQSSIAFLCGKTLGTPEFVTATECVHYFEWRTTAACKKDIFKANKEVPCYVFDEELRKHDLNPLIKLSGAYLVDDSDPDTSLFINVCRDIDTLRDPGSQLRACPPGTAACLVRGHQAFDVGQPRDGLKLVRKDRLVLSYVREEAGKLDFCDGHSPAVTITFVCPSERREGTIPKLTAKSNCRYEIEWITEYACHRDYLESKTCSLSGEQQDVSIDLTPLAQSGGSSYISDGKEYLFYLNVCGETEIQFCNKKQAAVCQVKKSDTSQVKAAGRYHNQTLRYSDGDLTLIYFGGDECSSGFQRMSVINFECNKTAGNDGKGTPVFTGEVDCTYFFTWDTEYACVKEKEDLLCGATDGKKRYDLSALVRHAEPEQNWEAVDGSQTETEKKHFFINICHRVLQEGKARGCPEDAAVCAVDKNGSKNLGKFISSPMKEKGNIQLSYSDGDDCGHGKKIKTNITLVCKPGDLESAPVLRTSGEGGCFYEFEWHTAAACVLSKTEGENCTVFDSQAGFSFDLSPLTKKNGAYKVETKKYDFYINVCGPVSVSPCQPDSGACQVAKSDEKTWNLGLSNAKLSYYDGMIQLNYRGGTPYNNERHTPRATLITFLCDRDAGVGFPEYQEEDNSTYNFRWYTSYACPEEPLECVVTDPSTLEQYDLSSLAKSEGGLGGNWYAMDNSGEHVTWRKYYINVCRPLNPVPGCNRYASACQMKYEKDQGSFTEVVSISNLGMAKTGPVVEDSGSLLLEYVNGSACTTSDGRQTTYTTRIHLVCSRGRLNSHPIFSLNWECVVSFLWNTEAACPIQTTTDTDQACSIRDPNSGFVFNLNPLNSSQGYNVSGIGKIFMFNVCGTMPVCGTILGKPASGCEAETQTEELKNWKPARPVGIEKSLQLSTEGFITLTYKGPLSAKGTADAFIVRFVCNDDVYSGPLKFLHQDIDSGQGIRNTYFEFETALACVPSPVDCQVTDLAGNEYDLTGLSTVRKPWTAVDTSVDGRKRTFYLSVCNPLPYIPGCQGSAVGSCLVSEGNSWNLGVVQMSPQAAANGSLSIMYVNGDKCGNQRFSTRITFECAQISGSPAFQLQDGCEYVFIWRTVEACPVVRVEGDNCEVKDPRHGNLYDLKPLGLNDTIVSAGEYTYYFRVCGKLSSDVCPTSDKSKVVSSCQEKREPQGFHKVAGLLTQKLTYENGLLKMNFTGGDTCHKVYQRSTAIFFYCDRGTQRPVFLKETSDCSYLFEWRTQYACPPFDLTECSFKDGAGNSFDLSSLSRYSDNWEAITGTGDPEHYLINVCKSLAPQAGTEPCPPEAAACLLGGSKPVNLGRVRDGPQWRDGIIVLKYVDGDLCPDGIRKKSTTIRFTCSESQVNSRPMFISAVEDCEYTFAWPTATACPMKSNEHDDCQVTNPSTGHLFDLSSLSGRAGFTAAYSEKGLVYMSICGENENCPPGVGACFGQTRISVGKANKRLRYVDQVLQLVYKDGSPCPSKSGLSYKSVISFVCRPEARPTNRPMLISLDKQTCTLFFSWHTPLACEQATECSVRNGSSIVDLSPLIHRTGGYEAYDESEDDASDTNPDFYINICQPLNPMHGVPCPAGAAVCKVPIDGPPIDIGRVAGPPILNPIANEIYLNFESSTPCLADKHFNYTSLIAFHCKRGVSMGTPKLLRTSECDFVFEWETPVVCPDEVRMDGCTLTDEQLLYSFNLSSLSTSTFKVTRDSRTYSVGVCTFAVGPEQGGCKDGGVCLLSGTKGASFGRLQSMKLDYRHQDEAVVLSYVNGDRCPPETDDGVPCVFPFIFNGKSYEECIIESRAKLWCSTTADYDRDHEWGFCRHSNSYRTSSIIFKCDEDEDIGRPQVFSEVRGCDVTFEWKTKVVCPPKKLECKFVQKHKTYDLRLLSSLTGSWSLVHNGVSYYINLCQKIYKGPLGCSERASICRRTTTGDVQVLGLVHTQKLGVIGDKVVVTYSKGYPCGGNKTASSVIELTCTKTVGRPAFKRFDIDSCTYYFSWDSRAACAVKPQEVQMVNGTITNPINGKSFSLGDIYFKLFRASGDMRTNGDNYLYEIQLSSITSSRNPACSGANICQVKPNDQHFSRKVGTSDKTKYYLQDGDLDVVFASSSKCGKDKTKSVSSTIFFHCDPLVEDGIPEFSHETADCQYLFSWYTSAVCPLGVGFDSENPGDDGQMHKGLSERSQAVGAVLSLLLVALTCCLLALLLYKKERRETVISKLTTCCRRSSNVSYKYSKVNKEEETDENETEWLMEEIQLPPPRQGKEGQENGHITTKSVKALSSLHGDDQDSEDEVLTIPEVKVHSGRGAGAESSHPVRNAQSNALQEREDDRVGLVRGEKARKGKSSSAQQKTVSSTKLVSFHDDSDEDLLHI
Experimental: In addition to having a greater percentage of rhGAA that can bind to the CIMPR, it is important to understand the quality of that interaction. […] Briefly, CIMPR-coated plates were used to capture GAA. Varying concentrations of rhGAA were applied to the immobilized receptor and unbound rhGAA was washed off. The amount of remaining rhGAA was determined by GAA activity.

Q: Which safety and tolerability [1] does the source give for “ATB200: recombinant human acid α-glucosidase expressed in CHO cells with increased content of M6P-bearing N-glycans” here?
A: safe and well tolerated

Q: And the percent hemolysis (whole human blood; 300 μg/ml)?
A: −0.1%

Q: What about the percent hemolysis (whole human blood; 600 μg/ml) of the same substance?
A: −1.5%

Q: What about the percent hemolysis (whole human blood; 1000 μg/ml) of the same substance?
A: −1.5%

Q: What about the “OD540 Without Blood” value (whole human blood; Concentration 300 μg/mL) of the same substance?
A: 0.001

Q: And the “OD540 With Blood” value (whole human blood; Concentration 300 μg/mL)?
A: 0.016

Q: And the “% Hemolysis” value (whole human blood; Concentration 300 μg/mL)?
A: −0.10%

Q: What about the “OD540 Without Blood” value (whole human blood; Concentration 600 μg/mL) of the same substance?
A: 0.002

Q: And the “OD540 With Blood” value (whole human blood; Concentration 600 μg/mL)?
A: 0.003

Q: What about the “% Hemolysis” value (whole human blood; Concentration 600 μg/mL) of the same substance?
A: −1.52%

Q: What about the “OD540 Without Blood” value (whole human blood; Concentration 1000 μg/mL) of the same substance?
A: 0.003

Q: And the “OD540 With Blood” value (whole human blood; Concentration 1000 μg/mL)?
A: 0.004

Q: What about the “% Hemolysis” value (whole human blood; Concentration 1000 μg/mL) of the same substance?
A: −1.52%

Q: And the Kd (CIMPR; binding to CIMPR, M6P receptor plate binding assays)?
A: 2 to 4 nM

Q: And the “binding to CIMPR” value (CIMPR; versus Lumizyme, FIG. 10A)?
A: bound to CIMPR significantly better than Lumizyme®
